Source: paper PMC10907589, “CD8^+ T cell priming that is required for curative intratumorally anchored anti-4-1BB immunotherapy is constrained by Tregs” (Nature Communications, 2024)

T1: murine 4-1BB (murine, UniProt P20334 24-256)
T1 chain: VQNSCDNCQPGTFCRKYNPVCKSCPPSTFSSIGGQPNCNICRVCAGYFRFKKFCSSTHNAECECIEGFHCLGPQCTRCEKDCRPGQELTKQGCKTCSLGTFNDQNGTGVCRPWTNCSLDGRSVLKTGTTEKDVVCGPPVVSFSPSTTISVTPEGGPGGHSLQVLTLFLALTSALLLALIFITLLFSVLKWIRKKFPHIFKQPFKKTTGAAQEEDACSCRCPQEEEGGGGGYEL

B1: ɑ4-1BB-LAIR (ɑ4-1BB antibody clone LOB12.3 fused to the ectodomain of murine LAIR1) (antibody, V domains shown)
VH: DVQLVESGGGLVQPGRSLKLSCAASGFIFSYFDMAWVRQAPTKGLEWVASISPDGSIPYYRDSVKGRFTVSRENAKSSLYLQMDSLRSEDTATYYCARRSYGGYSEIDYWGQGVMVTVSS
VL: DIQMTQSPASLSASLEEIVTITCQASQDIGNWLAWYHQKPGKSPQLLIYGSTSLADGVPSRFSGSSSGSQYSLKISRLQVEDIGIYYCLQAYGAPWTFGGGTKLELK
notes: heavy chain variable region of ɑ4-1BB clone LOB12.3; murine IgG1 heavy chain constant region; flexible (G4S)3 linker, written out from the printed formula; Leukocyte Associated Immunoglobulin Like Receptor 1 (LAIR1), murine, ectodomain; light chain variable region of ɑ4-1BB clone LOB12.3; murine kappa light chain constant region; Chimeric murine IgG1/kappa antibody; LAIR1 is fused to the …
B2: ɑ4-1BB antibody (clone LOB12.3), murine IgG1 chimera (antibody, V domains shown)
VH: B1 VH
VL: B1 VL
notes: heavy chain variable region of ɑ4-1BB clone LOB12.3, as in the heavy chain of m1; murine IgG1 heavy chain constant region; light chain variable region of ɑ4-1BB clone LOB12.3, as the light chain of m1; murine kappa light chain constant region; Chimeric murine IgG1/kappa antibody; light and heavy chain encoded in one cassette with a T2A peptide between them; also called α4-1BB; a4-1BB; source: …

Experiments:
murine 4-1BB [1] = target: T1, murine 4-1BB; experiment: FACS
rat collagen I = rat collagen I (rat, UniProt P02454 152-1207; P02466 86-1125); experiment: ELISA
Chain of rat collagen I (P02454 152-1207, chain 1 of 2): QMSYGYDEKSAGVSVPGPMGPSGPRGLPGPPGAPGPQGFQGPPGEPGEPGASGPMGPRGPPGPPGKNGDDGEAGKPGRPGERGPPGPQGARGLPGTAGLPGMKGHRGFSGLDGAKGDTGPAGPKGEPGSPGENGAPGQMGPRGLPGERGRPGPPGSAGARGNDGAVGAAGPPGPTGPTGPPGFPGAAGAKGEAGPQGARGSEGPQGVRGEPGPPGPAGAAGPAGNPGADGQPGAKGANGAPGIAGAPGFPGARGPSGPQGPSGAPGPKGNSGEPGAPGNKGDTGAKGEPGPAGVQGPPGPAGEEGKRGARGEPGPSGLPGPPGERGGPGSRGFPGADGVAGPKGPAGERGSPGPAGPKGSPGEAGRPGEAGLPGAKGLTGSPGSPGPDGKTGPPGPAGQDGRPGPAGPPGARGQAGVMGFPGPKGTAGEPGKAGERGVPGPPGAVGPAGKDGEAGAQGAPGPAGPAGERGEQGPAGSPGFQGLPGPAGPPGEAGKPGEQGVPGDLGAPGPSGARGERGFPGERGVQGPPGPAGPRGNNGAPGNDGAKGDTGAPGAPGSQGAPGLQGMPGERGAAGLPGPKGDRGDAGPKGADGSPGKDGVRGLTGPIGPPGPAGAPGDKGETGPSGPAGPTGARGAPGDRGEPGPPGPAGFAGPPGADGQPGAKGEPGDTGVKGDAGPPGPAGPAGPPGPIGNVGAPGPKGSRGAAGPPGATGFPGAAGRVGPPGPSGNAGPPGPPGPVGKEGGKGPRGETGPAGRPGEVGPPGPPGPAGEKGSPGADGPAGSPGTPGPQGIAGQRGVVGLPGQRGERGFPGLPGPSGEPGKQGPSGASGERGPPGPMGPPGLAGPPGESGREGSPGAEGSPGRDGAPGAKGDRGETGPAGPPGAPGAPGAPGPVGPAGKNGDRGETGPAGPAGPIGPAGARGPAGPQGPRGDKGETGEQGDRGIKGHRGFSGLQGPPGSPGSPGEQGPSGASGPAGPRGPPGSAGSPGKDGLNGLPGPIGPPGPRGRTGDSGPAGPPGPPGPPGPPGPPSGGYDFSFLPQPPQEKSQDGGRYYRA
Chain of rat collagen I (P02466 86-1125, chain 2 of 2): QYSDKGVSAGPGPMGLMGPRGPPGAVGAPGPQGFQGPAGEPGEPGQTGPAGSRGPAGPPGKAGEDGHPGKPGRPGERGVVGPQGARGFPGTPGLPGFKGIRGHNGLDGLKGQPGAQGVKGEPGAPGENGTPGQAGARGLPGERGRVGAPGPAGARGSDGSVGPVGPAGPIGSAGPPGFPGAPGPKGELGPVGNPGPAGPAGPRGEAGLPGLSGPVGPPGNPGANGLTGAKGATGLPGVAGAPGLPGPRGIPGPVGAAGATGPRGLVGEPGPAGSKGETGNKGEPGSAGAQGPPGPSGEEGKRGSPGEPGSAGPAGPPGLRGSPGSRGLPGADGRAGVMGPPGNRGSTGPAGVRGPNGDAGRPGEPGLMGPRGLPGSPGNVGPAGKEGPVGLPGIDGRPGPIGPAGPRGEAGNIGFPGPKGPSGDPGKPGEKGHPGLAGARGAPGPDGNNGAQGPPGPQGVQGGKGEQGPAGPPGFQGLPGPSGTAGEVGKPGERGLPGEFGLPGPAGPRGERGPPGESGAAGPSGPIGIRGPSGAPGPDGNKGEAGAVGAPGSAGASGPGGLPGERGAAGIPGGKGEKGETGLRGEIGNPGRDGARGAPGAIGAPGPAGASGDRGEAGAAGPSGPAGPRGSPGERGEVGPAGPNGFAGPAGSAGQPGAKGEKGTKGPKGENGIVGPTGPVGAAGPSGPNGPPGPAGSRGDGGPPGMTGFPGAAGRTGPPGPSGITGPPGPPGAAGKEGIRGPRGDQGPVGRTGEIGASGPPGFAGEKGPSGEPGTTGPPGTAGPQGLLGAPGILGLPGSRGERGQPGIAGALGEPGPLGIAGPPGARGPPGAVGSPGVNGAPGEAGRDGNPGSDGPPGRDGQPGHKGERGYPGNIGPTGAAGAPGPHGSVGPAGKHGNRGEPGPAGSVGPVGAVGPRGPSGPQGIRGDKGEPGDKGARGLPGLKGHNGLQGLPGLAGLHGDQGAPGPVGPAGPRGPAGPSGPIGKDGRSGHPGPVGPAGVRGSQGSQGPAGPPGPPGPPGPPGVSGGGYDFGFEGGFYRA

murine 4-1BB [2] = target: T2, murine 4-1BB (Mus musculus, UniProt P20334); experiment: flow cytometry on cells; FreeStyle 293-F cells transiently transfected with murine 4-1BB, titrated with antibody for 3 h at 4 °C; detected with ɑmIgG1-APC; details: one partner purified
T2 construct: 4-1BB (CD137, TNFRSF9), murine; gene from OriGene cloned into pIRES2 (GFP downstream of an IRES site, not fused); also called CD137; TNFRSF9; source: FreeStyle 293-F, transiently transfected (pIRES2 vector), on cells

| Kd (murine 4-1BB [1]) [nM] | Kd (rat collagen I) [nM] | binding result (murine 4-1BB [2]) | Binder |
| --- | --- | --- | --- |
| 5.08 | 25 | binds | B1 |
| 4.12 |  | binds | B2 |
